Laboratory results taken from the DeepSol protein solubility set.

experiment: soluble on expression in E. coli; label from the status in PepcDB or PDB records

With “MGSDKIHHHHHHMSRFFRHYQAFHAIIETGTVTGAAERLGVSQPAISNLLAQLERRTRLKLFERNRGRLLPTPEAMVLFDEIDTVIRGLGQVSQAVVDLQNQKAGQLQVATNHAMAFGFMPEQIARFAADKPNLTVAFQSQYSAKIQDWVMAGLFEIGICEQPVRTDGLDWVPFFFEIQCAVPADSPLARHEELTPILLDDVPFIVMGADHMVTRRAREAFHREGANLRIRCQTDLFRNALNLVKQGLGVTLVDPFTLSSDDRSGYVLRRFAPRILLDVIIVTARGRPISAIGAQFLEQVSASMTTLATAAPDPAEP” as the sequence, how does the “soluble on expression in E. coli” value read?
The value was “not soluble”.

For “VPGILMCEIFIRANQRSYSVQARSLRLHGVATSVRLEQLFWDVLEEIAARDGMRVTQLIERLYDELVQYRGEAANFTSFLRVCCLRYQVLQAEGRIPADATVPIRSLDAQAVLRGLPANLYDSR”, which “soluble on expression in E. coli” value is on record?
The value was “not soluble”.

Which “soluble on expression in E. coli” value does the source give for “MAHHHHHHMEQQVIAVHYQRMEEWLSDRKAVLGKKHKKEFFRLMELAPKLEQLVRYEIPAQHKQNKRLSGLLDDAYGSIEDAAKARKNLEERQKRFFQEYGLVESQGAEEEDLEAVIEAKIASSTTSLNEALREFGRSPHLESFREAYVRAAKMYSMGMYDDNVFSLHLPWLDRVYQERFYKSKVDIHHHEQHQKQRAGERDQVAVKASTGPCNIDWGDEDTVDLVDVGETVEIKWDEEALEVAVEGAVRNCSENNKRMDDGCEEKPTDTVKGIFTIDVSNAAHRKNILTELQAFACFASERSSMDDESLAEPAAAVEVLVKKLTASTEAVFVRMKTTPTLRFSFMEEVRRLQRGIAAASMRKSNSQARVHQIQEEIERLGPQLDALLIAAGNCRDECLAELLKMFPGRTVTIVGDINKYL” here?
Its value is “not soluble”.

With “MSLIEIPGFIDLHTHTRYPDNDKFPFIDIDDSAINGGFSTILAMPNSEIPIDSIKNLRIAQEIDKKLKTKVHRVGSLTKNLEGKELVNYKEFVENGITIFSDDGKSLINDHLADEAFKQISKLGGAVFQHCEKSCHSKPGDIAPPNSNSDLILINNDEELEVLERDLSLSEKYGTRYHAQHLSTFESVELIKKAKQEGLPVTAEVTPHHILLNNENLDTNNGLFKMYPPLRTEKDREGLVEGLQSEIIDVIATDHAPHKAETKNVPFKDANRGVVGLNEGHHHHHH” as the sequence, how does the “soluble on expression in E. coli” value read?
Its value is “soluble”.

Which “soluble on expression in E. coli” value does the source give for “MSLATKLRRVRKSPPEGWDLIEPTLEQFEAKMREAETEPHEGKRKTEINWPIFRIHHQRSRYVYDMYYKKAEISRELYEFCLTAKFADAALIAKWKKQGYENLCCVKCVNTRDSNFGTACICRVPKSKLDAERVIECVHCGCHGCSG” here?
Its value is “not soluble”.

With “MAHHHHHHMAACRSTPLTSSPVACEQAHRQPTIVDRDYEASKYWKSHRCRRIPKATGLTAVLITNPGLSVFTHQPHSRTNTVQGRKSCQGQQTTGRQLQISGNRAVADSVPRSQKNSVTAAWSV” as the sequence, how does the “soluble on expression in E. coli” value read?
Its value is “not soluble”.

For “MPVINVKDDEDFRNQLSLAGLKSVIVDFTAVWCGPCKMIAPTFEALSNQYLGAVFLKVDVEICEKTSSENGVNSMPTFMVFQSGVRVEQMKGADAKALETMVKKYADNSAADSLVAGQMDLTPLVDKKQMECLNESDDTPLGRFLEGNCNLVSDCDEQLIISLPFNQPVKVHSILIKGVSDRAPKKVKVFINLPKTTDFDNATALEPTQMLEFDESSIQGHGQVVALKYVKFQNVQNIQFFIENNVGGGDVTELVKLTVFGTPLSALNMNEFKRVAGKAGDAAH”, which “soluble on expression in E. coli” value is on record?
Its value is “not soluble”.

For “MSLKSKVLVIDDEPDIRELLTLTLSRMGLICDAVSDFKQGIEHIKQNYYSLVLTDMRLPDGDGIEIVKFIQKYKPQLPVAVITAYGNVEGAVNTLKAGAFDYVSKPVDLKMLRELVKTALSMQNPSTESPDEGLLVGESLIMQQLRESIHKLARSQAPVFIQGDSGVGKELVAQLIHANGPRKDKPFIPVNCGAIPGELMESEFFGHKKGSFTGAISDKTGLFVAAHGGTLFLDEIAELPLAMQVKLLRAIQEKAIKPIGELYEIPVDVRILSASHKNLIEEINAGRFRQDLYYRINVIELRVPTLMERLSDIPCLTEAILKKLSKNQNRNLVKINPSCFEILSRYHFPGNVRELENILERAMAMCEGEVIEPSEGHHHHHH”, which “soluble on expression in E. coli” value is on record?
The value was “soluble”.

With “MGSDKIHHHHHHMYSIVEGDRVLEIGFMEHFMFLDFPTLVDIPIGLPKKGERECDRLTRRILSKRAASVFTVPCRVAVYRESYEDALRVNRECQGKGFPVQFWHIVEKVREVDVFLRSYPDLSDQIRESHPELCFLRISSKMMKSKHTREGLNQRIEILREHLVFDVENLQRICREYRIHIHDVLDSLVLALAQQFPLERIPEDPPLDEHGLPMQIIAPARTQRSPNPE” as the sequence, how does the “soluble on expression in E. coli” value read?
Its value is “not soluble”.

For “RELHPVAPLLDNLTSALNKVYQRKGVNISLDISPEISFVGEQNDFVEVMGNVLDNACKYCLEFVEISARQTDEHLYIVVEDDGPGIPLSKREVIFDRGQRVDTLRPGQGVGLAVAREITEQYEGKIVAGESMLGGARMEVIFGRQHSAPKDE”, which “soluble on expression in E. coli” value is on record?
The value was “soluble”.

Which “soluble on expression in E. coli” value does the source give for “GPGSMSGAGNLRSNRRREMDYMRLCNSTRKVYPSDTVAEFWVEFKGPEGTPYEDGTWMLHVQLPSDYPFKSPSIGFCNRILHPNVDERSGSVCLDVINQTWTPMYQLENIFDVFLPQLLRYPNPSDPLNVQAAHLLHADRVGFDALLREHVSTHATPQKALESIPEAYRPHDNTHEEEPDEANAKDTASDGPVNAGHSKGLTDSSVTPTEDHRVMHDDIAIDGDEDVEAEYEPEEIDL” here?
Its value is “soluble”.

For “MRGSHHHHHHGKQLTILGSTGSIGCSTLDVVRHNPEHFRVVALVAGKNVTRMVEQCLEFSPRYAVMDDEASAKLLKTMLQQQGSRTEVLSGQQAACDMAALEDVDQVMAAIVGAAGLLPTLAAIRAGKTILLANKESLVTCGRLFMDAVKQSKAQLLPVDSEHNAIFQSLPQPIQHNLGYADLEQNGVVSILLTGSGGPFRETPLRDLATMTPDQACRHPNWSMGRKISVDSATMMNKGLEYIEARWLFNASASQMEVLIHPQSVIHSMVRYQDGSVLAQLGEPDMRTPIAHTMAWPNRVNSGVKPLDFCKLSALTFAAPDYDRYPCLKLAMEAFEQGQAATTALNAANEITVAAFLAQQIRFTDIAALNLSVLEKMDMREPQCVDDVLSVDANAREVARKEVMRLASSACDLGTPGRPAAKLN”, which “soluble on expression in E. coli” value is on record?
The value was “soluble”.

Which “soluble on expression in E. coli” value does the source give for “MNAITPTPGIDKEAFDRAANAVRRLCGWHIFPIIEETITLDSPGDSLLVLPTKHLVEIINVTIDGTTYPLSDFRSSPDGLLVKRHGRFPRGIAMVTVTMKHGYEKPTEILGVINDMARRANESNLTQLNVGGISVGATNSATPQSSEWRIVDELRLGPLP” here?
The value was “not soluble”.

For “METEVMKSFNNELSSLFDSKNMSKNKIQDITKAAIKAKSQYKHVVFSVEKLINKCKPDQRLNVLYVIDSIVRASKHQLKEKDTFGPRFMKQFDKFLMPLLKCGQKEKMRTVRTLNLWMSNKVFKESEIQPLREMCKASGLTIDFEEVELAVKGKQADMSIYSGVYKKKPKRSSSSSQPKSRTPTNPHPDDGLLGAGPSSALRSVPDIPNFVLSEDYFLGTISEREMLELVQKFGIDRSGVLSKDKNLLQRALQIFAGSLSQKVEEVLAENNRINGSSIQNVLTKDFEYSDDEEEKEKEPQPEKQKNLPHAQVLLLAQSLLTQPQILAKLAEVLIPQGNPFGLPFPGEHIVPTSSAALTLGAPPPNLMALQQSLPPGFPNQQLGLPNLSGLNQAQLMNVQNAQNMLQLQQRAAQLQALQGNPNAQRNLLMLGNPLLNPFALQHGVNPMLNDLQAAAAAQQQAMLNEAAQSPEKKILELSGGNSGINNSGDVERARLREKEKERESKERRRMGLPPVRIGFTIIASRTLWLKKIPTNIVENDLKQAVESCGEASRVKVIGNRACAYITMENRRSANDVVSKMREVSVAKKMVKVYWARSPGMDSDQFSDLWDSNRGVLEIPYEKLPLDLVALCEGAMLDIESLPIEKKLLYKETGETVISIPPPNIQPPVPHPPPMGFPFQHQLTQLPGQPRPAGLPPGVPPMFNLNAPPPPGIPGYPPAPPPPGVGPPPPQGIPPMGFDPNKPPPPMFQQGFNAGAPPPPFGRGAGPMSSFPPPPRGGMHHMPPPPSFRGGRGGHGGPPPPHFDRRGGGGPPFRPENGRGRLLDQSEMWNREQREMRGGGGAGRDGGREHRDYDRDRSQIDRRRQDDMGARRRSRWGDDDRRDDDRRDDRRDDRRESRRRSPRSPRSPDRRTRRSPSYEREEPPVKKTSVEEETVSSTTLDELKPSVEPTPVPAPIPAPAPELKAAEEPVKIVAEHHEDQTDEVPMDLE”, which “soluble on expression in E. coli” value is on record?
The value was “not soluble”.
